Measured values published in the supplement of paper PMC12455559.

Test: purified protein yield per well (BCA); higher = higher soluble expression
Method in brief: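 The measured quantity is purified protein yield per well, determined with the Pierce Rapid Gold BCA kit. Anything below 25 ug (0.1 mg/mL) lies under the detection threshold. Enzymes were expressed in E. coli C41(DE3) in 2 mL autoinduction cultures with 100 µg/mL kanamycin at 37 °C for 2 h, then 18 °C for 40 h, and purified on an OT-2 robot using Ni-charged magnetic beads and SUMO protease release.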

Sequence: ATTAGTFGGVAISPGYTASESTIAWLGPRIASQGFVVITFNTNSRYDQPASRGDQLLAALDYLTGSSAVRARVDASRLAVMGHSMGGGGALEAAKDRPSLQAAIPLTGWNTDKTWPEVRTPTLVIGAENDSVAPVGSHSIPFYNSLTSAPERAYLELNNASHFAPNSPNTDIASSSIAWLKRYVDDDTRYTQFLCPGPSVSAFGSVSDYRATCPM [TEP154]
- purified protein yield per well: < 25 µg

Sequence: VENGPAPTLAAIQKDGPYAVTAQAIKGSGFGSGTIYVPNAAGQYALVAVCPGFVSPESSITAISKRLATHGFVVVTIATNTLLDFPSSRASQILAALKAAAGTTTGAVAGKIDVSRQVASGWSMGGGGTLEAAASTPGLVAAVAYAPWNTSSTKYKTITVPSLILGGTADVIAPVAQHSQPFYNAIPATTPKMLAVIQGASHFFPNSAGEPQSYTNISWVKRFADGDTRYGTFLNTKDAAFSTVQSTGPF [ESM089]
- purified protein yield per well: < 25 µg

Sequence: ANPYERGPAPTLSSIQATTGPFATATTTVPSGNGFGGGTIYYPTDTSQGTFAAIAMSPGFFNTQSAISWYGKRIASQGFVFLTINTNTILDFPDSRATQLLAALDYLTQSSPVSSLIDSSRLGVMGYSMGGGGTLKASKTRPSLEAAVGVAPWHSTKNWSTNTVPSMMLGMQNDTVAPASSHAIPFYNSLPASIHKVYAEVRGASHSTPTSANTPIAQYSIAFLKQELDNDTRYTQFLCPAPAVGGTNPLSAYSSTCPF [DP067]
- purified protein yield per well: < 25 µg

Sequence: LWLGLGGVLSLIGFVVIGVETNSRTDYDVARGTQLLAALDYLTQQSPVRNRVDPNRLGVIGHSMGGGGVVYATEHRPALKAAVALAPFSPSQNMSTDTVPTMVMAGQNDTVVTPSYLSGLYATMPAATQSDFLQIAGADHVYYTHPNSVEMRILIPWIKTFLDNDTRYTQVICPGLAL [TEP112]
- purified protein yield per well: < 25 µg

Sequence: VQSESPGKKYTSGPYGYTTTSLTGYSAGATIYIPRTGTPPYSGIVFMQPYTGTQAMDAAWGPFFASHGIIYVNCDSMTTLDTVDSRATQQMNAVSILKSSSKVKGKLDTSRVGVMGWSMGGGASWINSSKSGVKTAMTLAGHNLTAVSTASKGYSTRCPTAIFSGSLDTTYLGGLGQSEGVYAAIPRSVSKLHYKVATAGHMVWGGPTTASVNVGAIGLAFQKTYLDGDTRWKAYITRPADAAIWTTNLR [TEP005]
- purified protein yield per well: < 25 µg

Sequence: QSTTPTSSALNATAGPLAVSTSTVTLASGFGGGTIYYPTTAGSYGLIALCPGFTATETSLAWLARRLASWGFVVVNMNTTTTMDQPASRATQLMAALKYALNSSSSAVRARIDPSRLAVAGHSMGGGGTLIAARDNPTLKAGYPLTPWNSSTNFSGVTVPTMIIGSDGDTVAPVAQHARPFYASLPAATFKAYGELNNATHFTPNSTSTPIGRYGVAWMKRFLDGDTRYSTFLCGSEHAAYATSLVFDRYNQNCPY [ESM187]
- purified protein yield per well: < 25 µg

Sequence: MQVARDGSAFQSPPETSGGIRSWRPTGRLWQRGVAAVAAAATLGALTIALTAVQPAAGAENPYQRGPDPTPASVSANRGTFATAQVSVPAGNGFGGGVIYYPTDTSQGKFGAIAIVPGYTATWAAEGAWMGPWLASFGFVVIGIDTNTRNDWDNARGQQLLAALDYLTQRSSVRDRVDATRTAVMGHSMGGGGAAYASLQRPSLKTSIGLAPASFSQNLTTTKVPTMLLSGQNDTTVSPASVLSLYNGIPAGVEKAYLELSNVGHLFPTSNNPTMMRNIIPWFKIFIDSDTRYTQFLCPLSNTTGIRSYQSTCPLVPSTPPTTTTTTTTTSTTTTTDTTTTTTDTTTTTTDSTTSTTTTTPGSGPSCTAAYTVVNQWGGGFQAEVRVAAGSTPISGWTVTWAWANGQTVTQQWSATITSSGPNVTAVNVGYNGNLGAGAATTFGFIASVNGANTPPTLACAAR [ESM022]
- purified protein yield per well: < 25 µg

Sequence: ADNPYQRGPDPTRSSVAASRGTFATAQVGVPAGNGFGGGVIYYPTDTSQGTFGAVAIVPGYTAKWAAEGAWTGPWLASFGLVVIGIDTNSANDFDVARDRQLPAALDYLAQRGSVRGRVDTTRLAAMGHSMGGGGALNAALRRPSSKAAVGSAPYKPSGNLASDRVATLLLAGQNDTTVTPSYVDGLHRSIPATTEKGYVELSGAGHAFPTRANSTQMRVVTPWLKVFLDDDARYSQFLCPLMDSAGINRYGSTCPLLPPDGSTGSSSSLVGSGFGKCLDAGAGQDRSKVTITSCTGGGGQKWVFNTNGTITDPQSGRCLDVDARGTADNTAVATWTCHGESNQVWTRRA [ESM189]
- purified protein yield per well: < 25 µg

Sequence: ADNPYQRGPDPTVASVAATRGPFATAQLTVPAGNGFGGGYLYYPTDTSQGTWGAVAIVPGYSALFANEEAWMGPWLASFGFVVIGVETITRTDGADARATELLAALDYLTQRSAVRDRIDATRLAVMGHSAGGAGTILAAEQRPSLKAGVGLAPGTPGSLSLATDKVPMMVVGGQTDPTVTPAYLDNLYAGMPATTPSDFVQIAGADHLFFTRANNTEMKVLIPWLKIFLDNDTRYTQFLCPSLADPSGISLYRSKCPYLPPGTPSPSPSVSPSNPAAGCTASYRTVGSWPGGFQGEVTVTAGGAALNGWTVGWTLGSGQTITQVWNGTLTTSGSAVTVRNASYSGSVPAGGSITFGFLAAGTPSVPALTCAG [ESM028]
- purified protein yield per well: < 25 µg

Sequence: ADNPYQRGPDPTVASVAATRGTFATAQLTVPAGNGFGGGYVYYPTDTSQGTWGAVAIVPGYSARFADEEAWMGPWLASFGFVVIGVETITRTDGADARATQLLAALDYLVGQSPVRDRVDPARLAVMGHSAGGAGTIIAAERRPSLRAAVGLAPGTPGSLSLATDRVPMMVIGGQTDPTVTPSYLDNLYATVPAATPSDFVQIAGADHLFFTRANNTEMKVLIPWLKIFLDSDTRYTSLLCPSLADPSGISLYRSKCPYVPPGTTSPSPSSPSPSSPGPPVPVAACTATYRTVNAWPGGFQGEVVVTAGGTAITGWTVRWTLGSGQTISQLWNGNLTTSGSAVTVDSAAYNGSVPPAGSVVFGFLATGSPTTPAPVCASP [ESM046]
- purified protein yield per well: < 25 µg

Sequence: FNPGSGGGSGGANTCETNCGFERGPDPTLSGLRSGTGPYSVSTVDVPYGSAGFGGGTIHYPTNTSGGKMGAIAVIPGFVSPESSIGWWGPALASQGFVVLTMGTQTPLDSPSARARQLTAGLDHLVEQSNSSSSAISGLVDPSRVAMVGWSMGGGGTLKNAAGDRLSAAIPLAPFDMDMSSYKNIETPTMILGCESDIIAAADLFAVPSYEHIPESTDKAYFEFAGQGHWCANGNNDNNELLSILGVSWMKRYLDKDTRYDQFLCGTNHSSNSAFSQVRDTCN [DP064]
- purified protein yield per well: < 25 µg

Sequence: QNCDSLLLESITNPGPYSVNDIDESAGIRNGSDYSGSTIYYPVNSNGNYASIVLVPGYMNTESTIQNWGPFLASHGIVTMTIGTNSLTDNHIQRKDALLDAIISLKNENNRLASPLYAKLATTTIAVGGFSKGGGGAQLAAVDAPDLKAVVALYPWLDNPSQSDLNHNIPVIIVSGELDLIAPPSSHADVHYDYTPNTTNKLKYEVEFASHDALSGPTGGNGEVGKRVFSWLQTYLLDDSCYCPLMLVPATTSSEYITNIVCDNVTQVSEFSYANKKLIKVIDLLGREAKENKNTPLFYIYDDGTVEKKIIIE [TEP087]
- purified protein yield per well: < 25 µg

Sequence: QTTAPTSASLNATAGPLSVSTASVSLPRGFGGGTIYYPTTQARYGVIAISPGFTATETSIAWLGRRIATHGFVVITLNTLTTLDQPASRANQLMAALSYVVNSSTSAVKARIDTTRLAVAGHSMGGGGALIAARDNPTLKASYPLTPWNSSTSFSTVRVPTMIIGADGDTIAPVAAHARPFYASLPGATTKAYGELNGGTHFSPNSTNTPIGRYGVAWMKRFVDGDTRYSTFLCGTEHTRYASALVFDRYNQNCPY [ESM124]
- purified protein yield per well: < 25 µg

Sequence: ASLSIGGEYQVLTYTDFPDVPEFGDATIYYPLETPGTVGGVAIAPGFTERQSHIEWWGPRLASHGFAVLVLDTNERRAMPDARGDALLAAVEVLRRESAREGSPLFGRVATDKMAIMGHSMGGGGALLAANEHSDQIQAAIPFTPWEPQAVFQDITVPTLVLAGSVDRLARVDNHAWRHYQSIPESTPKAYLEVGGGNHYIADTERGTDLETI [TEP137]
- purified protein yield per well: < 25 µg

Sequence: DEVGQAPTAANIVGDGSFATTSSAITGQSGFGGGTVYYPTTAGRYPVVAVAPGFLSDWNSLNWLGSRVASWGFVVVGVNTNSGFDFPPSRGDQLLAALNWAVGSAPVAVRDKVDGTRRGVAGWSMGGGGTLEALAKDTTGTVKAGVPLAPWHSDKTWEQVSEPVFLVGGQNDTVAAPSSHAIPFYNSLGGQKSYLELAGQAHFFPTTSNPTVSRAIVSWFKRFVSSDNRFTPFTCGYTGSAVSNFRSSAC [ESM100]
- purified protein yield per well: < 25 µg
